{"source": "patent US11945858B2", "about": "“Antibodies and antibody fragments against HNAV1.7 channel and their use in pain and cancer indications” (NATIONAL RESEARCH COUNCIL OF CANADA, priority 2018, dated 2024)", "key": {"[1]": {"system": "OD1-evoked Nav1.7-mediated spontaneous pain behaviours", "type": "in vivo, mouse", "conditions": "50 μg VHH"}, "[2]": {"system": "CFA-induced thermal hyperalgesia", "assay": "Hargreaves Model of Hyperalgesia in rats", "type": "in vivo, rat", "conditions": "for Percentage of maximum possible effect (% MPE): 4 h (FIG. 27B)", "procedure": "Hargreaves Model of Hyperalgesia in rats. Rats aged 4-6 weeks (weight range, 180-220 g) were used for intraplantar (ipl) administrations of various antibodies and evaluation of their efficacy in the Hargreaves model of inflammatory pain. Chronic inflammatory pain is induced by injecting a low volume (50 μl) of complete Freund's adjuvant (CFA; heat-killed M. tuberculosis—Sigma, St. Louis, Mo.—suspended in oil:saline 2:1 emulsion) into the right hind paw. The paw withdrawal latency in response to the application of a radiant stimulus onto the plantar surface of both right and left paw was measured using the plantar Analgesia Meter equipment for paw stimulation (IITC Life Science, Woodland Hills, Calif.). The time taken by the animal to respond by licking or flicking its paw is interpreted as positive response (paw withdrawal latency). After 48 h of the CFA injection, the baseline for latency paw withdrawal was measured and the mAbs tested. […] A cut-off time (20 sec) is established at the end of which the heat source shuts off automatically to avoid tissue damage. Animals were kept (randomized) one per cage and staff performing pain experiments are blinded to the content of injectable compounds. Percentage of maximum possible effect (% MPE) was calculated using the formula % MPE=(Test Latency−Baseline Latency)×100/(Cut-off−Baseline Latency)."}, "[3]": {"system": "FC5DIIIDIR (extracellular loop DIII of the hNav1.7 channels grafted to FC5 scaffold)", "assay": "Phage ELISA on FC5DIIIDIR", "type": "binding, human"}, "[4]": {"molecular_target": "hNav1.7 channels (Homo sapiens, UniProt Q15858, W1161R)", "assay": "Patch-clamp whole-cell recordings in hNav1.7-HEK293 cells", "type": "cell-based"}, "[5]": {"system": "VHH FC5", "sequence (as listed by the source)": "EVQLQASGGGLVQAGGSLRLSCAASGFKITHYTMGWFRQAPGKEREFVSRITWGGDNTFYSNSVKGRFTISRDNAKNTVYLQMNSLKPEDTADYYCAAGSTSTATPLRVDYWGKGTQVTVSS", "assay": "Phage ELISA on VHH FC5", "type": "binding", "procedure": "FIG. 25A Phages were rescued from individual colonies, selected from the fourth round of panning and grown overnight at 37° C. Wells of a Nunc microtiter plate were coated with FC5DIE3IR and FC5 proteins at 5 μg/ml in PBS. After blocking, 100 μl of phage supernatants (from clones A-H) were added to the respective wells followed by incubation for 1 h at room temperature and addition of anti-M13-HRP conjugate. Binding was detected with TMB substrate and A450 was measured using an ELISA plate reader. As shown, six positive clones (DI-A, DI-B, DI-C, DI-D, DI-E and DI-H), having a signal of at least 3× background, were identified by phage-ELISA.\nAdditional rounds (up to 3) of panning were performed by coating the ELISA plate with the same proteins and using the amplified phages after each round of panning as described above. After four rounds of panning, 77 randomly picked colonies were grown and subjected to monoclonal phage ELISA screening as described previously (Arbabi-Ghahroudi et al., 2009) except that 5 μg/ml of FC5DIE3IR and FC5 VHH (the negative control) were coated onto a microtiter plate. All positive clones specifically binding to FC5DIE3IR were sequenced and unique VHH sequences were selected for sub-cloning, large-scale expression, and purification. A total of 6 VHHs specific to FC5DIE3IR were isolated. […]"}, "[6]": {"molecular_target": "T1, FC5DIE3IR (Homo sapiens, UniProt Q15858)", "T1 construct": "The supernatant was collected and loaded on a 5 ml MabSelect™ SuRe™ column; made in house; host or cells: CHO-3E7 (transient, pTT5 vector), purified from supernatant", "assay": "Surface Plasmon Resonance for VHH antibodies, immobilized FC5DIE3IR", "type": "binding", "conditions": "SPR", "procedure": "(§1) Surface Plasmon Resonance for VHH antibodies. For SPR experiments, IMAC-purified VHHs DI-D, DI-4, DI-16, DI-28 and DI-48 were passed through a Superdex 75 (GE Healthcare) column for SEC purification in HBS-EP+buffer (10 mM HEPES, pH 7.4, containing 150 mM NaCl, 3 mM EDTA and 0.05% P20), connected to an AKTAPurifier (GE Healthcare) at a flow rate of 1 ml/min. Monomeric VHH fractions were collected and protein concentration determined by measuring A280 measurement. Using a Biacore T200 instrument (GE Healthcare), approximately 500-1000 RUs of FC5DIE3IR, FC5 and an irrelevant VHH (2A3-H4) were immobilized on a CM5 Series S sensor chip (GE Healthcare) at pH 4.0 using standard amine coupling according to the manufacturer's instructions (GE Healthcare). […] Surfaces were regenerated by washing with a 120 s pulse of 10 mM glycine pH 1.5. Data were analyzed with Biacore T200 Software v 3.0 and affinities determined using steady state binding or a 1:1 binding model."}, "[7]": {"system": "2A3-H4", "assay": "Surface Plasmon Resonance for VHH antibodies, immobilized irrelevant VHH 2A3-H4", "type": "binding", "conditions": "SPR; 25 C", "procedure": "as §1"}, "[8]": {"system": "FC5", "sequence (as listed by the source)": "as above", "assay": "Surface Plasmon Resonance for VHH antibodies, immobilized FC5", "type": "binding", "conditions": "SPR; 25 C", "procedure": "as §1"}, "[9]": {"conditions": "−20 mV, after antibody application (1 μM)"}}, "note": "“Also recorded” adds a separate entry of the source."}
{"molecule": "DI-D: anti-hNav1.7 VHH from phage-displayed LAC-M naïve library; SEQ ID NO: 38 (protein, DI-D) VHH: QVKLEESGGGLVQPGGSLKLSCVASGFAFSSAPMDWVRKAPGKDVEWLSTIESDQDHTIYYANSVKGRFTISRDDVQNILYLQMNDLKIEDTATYYCQKRGEKKTRGQGTQVTVSS", "values": [{"measurement": "Effect on spontaneous pain behaviours evoked by OD1 (in words)", "setting": "[1]", "result": "reversed spontaneous pain behaviours"}, {"measurement": "Time spent in pain behaviors (saline plus OD1 = 100%)", "setting": "[1]; injected 60 minutes prior to OD1, 20 min after the injection", "result": "44.33%±8.8"}, {"measurement": "Latency paw withdrawal", "setting": "[2]; 50 μg intraplantar, 4 h", "result": "8.36 ± 0.53", "unit": "s"}, {"measurement": "Percentage of maximum possible effect (% MPE)", "setting": "[2]; 50 μg intraplantar", "result": "21.59%±4.05"}, {"measurement": "Latency paw withdrawal", "setting": "[2]; 100 μg intraplantar, 1 h", "result": "13.35 ± 0.44", "unit": "s"}, {"measurement": "Latency paw withdrawal", "setting": "[2]; 100 μg intraplantar, 2 h", "result": "11.40 ± 0.69", "unit": "s"}, {"measurement": "Latency paw withdrawal", "setting": "[2]; 100 μg intraplantar, 4 h", "result": "11.78 ± 0.50", "unit": "s"}, {"measurement": "Percentage of maximum possible effect (% MPE)", "setting": "[2]; 100 μg intraplantar", "result": "45.19%±4.40"}, {"measurement": "Binding of the phage to FC5DIIIDIR (in words)", "setting": "[3]", "result": "did not bind"}, {"measurement": "Reduction currents (%)", "setting": "[4]; 1 μM", "result": "11.7%±5.8"}, {"measurement": "Time constant of the block of the hNav1.7 currents (effect onset)", "setting": "[4]; 1 μM", "result": "113 ± 11", "unit": "s"}, {"measurement": "Voltage-dependence of activation (shift V1/2 activation)", "setting": "[4]; 1 μM", "result": "−6.1±1.0", "unit": "mV"}, {"measurement": "Voltage-dependence of the steady-state fast inactivation (shift V1/2 inactivation)", "setting": "[4]; 1 μM", "result": "−6.8±1.5", "unit": "mV"}, {"measurement": "hNav1.7 current remaining, % of control", "setting": "[4]; 1 μM, 500 sec recording (FIG. 26B)", "result": "approx. 91%"}, {"measurement": "Onset time of the effect (exponential fit of the current decay, T)", "setting": "[4]; 1 μM, single time-course recording of the figure", "result": 150, "unit": "s"}, {"measurement": "Reduction currents (%)", "setting": "[4]; 2 μM", "result": "15.0%±6.9"}, {"measurement": "Time constant of the block of the hNav1.7 currents (effect onset)", "setting": "[4]; 2 μM", "result": "200 ± 45", "unit": "s"}, {"measurement": "Reduction currents (%)", "setting": "[4]; 3 μM", "result": "24.1%±5.6"}, {"measurement": "Effect on hNav1.7 currents (in words)", "setting": "[4]; example recordings, 1-3 μM", "result": "reduced hNav1.7 current in a dose dependent manner"}, {"measurement": "Efficacy (degree of maximum inhibition)", "setting": "[4]; resting/closed state", "result": "27.4±5.", "unit": "%"}, {"measurement": "Fast inactivation (time constant)", "setting": "[4]; [9]", "result": "1.29 ± 0.30", "unit": "ms"}, {"measurement": "Time-to-peak", "setting": "[4]; [9]", "result": "1.64 ± 0.37", "unit": "ms"}, {"measurement": "Binding of the phage to VHH FC5 (in words)", "setting": "[5]", "result": "did not bind"}, {"measurement": "Binding to immobilized FC5DIE3IR (comment, in words)", "setting": "[6]", "result": "clear binding; also recorded: binds specifically"}, {"measurement": "Binding to immobilized 2A3-H4 (comment, in words)", "setting": "[7]", "result": "No binding"}, {"measurement": "Binding to immobilized FC5 (comment, in words)", "setting": "[8]", "result": "trace amounts of binding; also recorded: Weak/residual binding"}]}
